{"source": "paper PMC6943125", "key": {"[1]": {"target": "NS1 RBD (Influenza A virus Ud, UniProt P03495 1-73)", "sequence (P03495 1-73)": "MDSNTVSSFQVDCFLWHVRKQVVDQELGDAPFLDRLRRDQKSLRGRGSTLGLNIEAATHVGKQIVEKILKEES", "assay": "NMR; equimolar dsRNA, pH 6.0 NMR buffer", "details": "protein: recombinant; tags: none (SUMO-His6 cleaved); chain copies: 2"}, "[2]": {"target": "T1, DHX30N (human, UniProt Q7L2E3-3 1-152)", "T1 sequence": "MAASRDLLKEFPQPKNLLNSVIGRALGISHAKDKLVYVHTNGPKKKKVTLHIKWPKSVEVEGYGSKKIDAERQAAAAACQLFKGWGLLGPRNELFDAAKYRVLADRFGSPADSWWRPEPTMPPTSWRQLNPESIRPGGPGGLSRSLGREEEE", "assay": "fluorescence polarization; 30 nM RNA, pH 6.0 NMR buffer; EMSA: 50 mM Tris-HCl pH 7.5, 150 mM NaCl, 10% glycerol, on ice, 1% agarose 4 C; FP and NMR: pH 6.0 NMR buffer (composition not in material); Ni-NTA: 20 mM Na phosphate pH 6.6, 100 mM NaCl, 20 mM beta-mercaptoethanol, 1% glycerol, room temperature", "details": "protein: recombinant"}}, "data": [{"binder": "33-bp dsRNA (dsRNA) RNA 1: CGAGCUCGCCCGGGGAUCCUCUAGAGUCGACCUGC RNA 2: CUGCAGGUCGACUCUAGAGGAUCCCCGGGCGAGCU", "values": [{"measurement": "binding result", "setting": "[1]", "result": "binds"}]}, {"binder": "16-bp dsRNA (dsRNA) RNA 1: CCAUCCUCUACAGGCG RNA 2: CGCCUGUAGAGGAUGG", "values": [{"measurement": "Kd", "setting": "[2]; label: FAM (sense and antisense)", "result": "~40", "unit": "nM"}]}, {"binder": "CCAUCCUCUACAGGCG (ssRNA)", "note": "[16-nt sense ssRNA]", "values": [{"measurement": "Kd", "setting": "[2]; label: 5' FAM", "result": "~500", "unit": "nM"}]}]}
